Experimental data as given in paper PMC9482650, “Quantitative fragmentomics allow affinity mapping of interactomes” (Nature Communications, 2022).

T1: TX1BP3, O14907
T1 sequence (O14907 10-122, limits assumed, looked up): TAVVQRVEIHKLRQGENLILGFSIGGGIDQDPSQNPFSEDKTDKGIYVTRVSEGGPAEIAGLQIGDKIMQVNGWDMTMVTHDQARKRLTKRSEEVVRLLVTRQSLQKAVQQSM

T2: SNTB1, Q13884
T2 sequence (Q13884 107-205, limits assumed, looked up): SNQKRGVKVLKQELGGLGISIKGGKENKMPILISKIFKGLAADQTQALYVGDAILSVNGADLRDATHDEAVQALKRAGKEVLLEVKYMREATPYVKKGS

T3: GRIP1_3, Q9Y3R0
T3 sequence (Q9Y3R0 247-346, limits assumed, looked up): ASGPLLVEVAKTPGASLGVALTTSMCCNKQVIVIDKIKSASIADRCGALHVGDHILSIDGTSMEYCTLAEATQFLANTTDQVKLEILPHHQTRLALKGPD

T4: PDZRN3_1, Q9UPQ7
T4 sequence (Q9UPQ7 244-349, limits assumed, looked up): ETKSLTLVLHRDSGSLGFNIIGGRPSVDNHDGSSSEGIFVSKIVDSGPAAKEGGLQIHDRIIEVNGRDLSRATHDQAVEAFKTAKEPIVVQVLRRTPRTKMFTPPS

T5: GRIP1_5, Q9Y3R0
T5 sequence (Q9Y3R0 568-668, limits assumed, looked up): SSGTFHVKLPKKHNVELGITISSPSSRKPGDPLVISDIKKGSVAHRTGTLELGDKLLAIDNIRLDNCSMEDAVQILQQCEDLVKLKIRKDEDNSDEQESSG

T6: DFNB31_1, Q9P202
T6 sequence (Q9P202 135-233, limits assumed, looked up): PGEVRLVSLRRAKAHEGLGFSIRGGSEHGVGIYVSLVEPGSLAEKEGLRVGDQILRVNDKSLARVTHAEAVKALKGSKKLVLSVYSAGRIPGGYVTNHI

T7: RADIL, Q96JH8
T7 sequence (Q96JH8 971-1071, limits assumed, looked up): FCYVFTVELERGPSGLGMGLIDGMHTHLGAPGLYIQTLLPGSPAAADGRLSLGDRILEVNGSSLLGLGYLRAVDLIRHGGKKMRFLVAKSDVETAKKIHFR

T8: APBA3_1, O96018
T8 sequence (O96018 389-490, limits assumed, looked up): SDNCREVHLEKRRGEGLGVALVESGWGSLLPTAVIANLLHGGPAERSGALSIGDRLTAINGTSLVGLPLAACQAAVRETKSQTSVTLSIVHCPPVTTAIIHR

B1: HNRNPK, P61978;P61978-2 (peptide)
chain: VKQYADVEGF

Target: MAGI2_6, Q86UL8
Sequence (Q86UL8 1141-1229): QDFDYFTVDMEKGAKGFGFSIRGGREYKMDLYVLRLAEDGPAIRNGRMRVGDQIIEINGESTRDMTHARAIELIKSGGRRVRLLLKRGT
Assay: holdup assay
Set-up: key: below the threshold = too weak to quantify, mostly under pKd 3.1 to 4
Conditions: plain residues with an end cap or a label only (N-terminal biotin on a linker: ado-ado)

Row | Binder | pKd
1 | B1 | below the threshold

Target: LNX1_1, Q8TBB1
Sequence (Q8TBB1 261-371): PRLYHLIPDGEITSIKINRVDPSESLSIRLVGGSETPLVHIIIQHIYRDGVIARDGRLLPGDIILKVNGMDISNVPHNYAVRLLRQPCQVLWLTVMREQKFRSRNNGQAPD
Assay: holdup assay
Set-up: key: below the threshold = too weak to quantify, mostly under pKd 3.1 to 4
Conditions: plain residues with an end cap or a label only (N-terminal biotin on a linker: ado-ado)

Row | Binder | pKd
2 | B1 | below the threshold

Target: FRMPD4, Q14CM0
Sequence (Q14CM0 67-160): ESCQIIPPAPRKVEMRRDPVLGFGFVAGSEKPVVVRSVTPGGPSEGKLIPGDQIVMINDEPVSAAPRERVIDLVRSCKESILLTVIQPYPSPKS
Assay: holdup assay
Set-up: key: below the threshold = too weak to quantify, mostly under pKd 3.1 to 4
Conditions: plain residues with an end cap or a label only (N-terminal biotin on a linker: ado-ado)

Row | Binder | pKd
3 | B1 | below the threshold

Target: Inadl_6, Q8NI35
Sequence (Q8NI35 1058-1167): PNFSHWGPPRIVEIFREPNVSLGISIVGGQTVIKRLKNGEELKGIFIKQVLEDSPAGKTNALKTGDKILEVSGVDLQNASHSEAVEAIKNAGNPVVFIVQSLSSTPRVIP
Assay: holdup assay
Set-up: key: below the threshold = too weak to quantify, mostly under pKd 3.1 to 4
Conditions: plain residues with an end cap or a label only (N-terminal biotin on a linker: ado-ado)

Row | Binder | pKd
4 | B1 | below the threshold

Target: T1, TX1BP3, O14907
Assay: holdup assay
Set-up: key: below the threshold = too weak to quantify, mostly under pKd 3.1 to 4
Conditions: plain residues with an end cap or a label only (N-terminal biotin on a linker: ado-ado)

Row | Binder | pKd
5 | B1 | 3.97

Target: T2, SNTB1, Q13884
Assay: holdup assay
Set-up: key: below the threshold = too weak to quantify, mostly under pKd 3.1 to 4
Conditions: plain residues with an end cap or a label only (N-terminal biotin on a linker: ado-ado)

Row | Binder | pKd
6 | B1 | below the threshold

Target: T3, GRIP1_3, Q9Y3R0
Assay: holdup assay
Set-up: key: below the threshold = too weak to quantify, mostly under pKd 3.1 to 4
Conditions: plain residues with an end cap or a label only (N-terminal biotin on a linker: ado-ado)

Row | Binder | pKd
7 | B1 | below the threshold

Target: MAGI1_2, Q96QZ7
Sequence (Q96QZ7 456-580): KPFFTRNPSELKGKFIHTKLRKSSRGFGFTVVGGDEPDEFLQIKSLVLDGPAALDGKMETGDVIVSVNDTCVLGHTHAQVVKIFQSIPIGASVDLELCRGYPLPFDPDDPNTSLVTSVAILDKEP
Assay: holdup assay
Set-up: key: below the threshold = too weak to quantify, mostly under pKd 3.1 to 4
Conditions: plain residues with an end cap or a label only (N-terminal biotin on a linker: ado-ado)

Row | Binder | pKd
8 | B1 | below the threshold

Target: DLG4_3, P78352
Sequence (P78352 306-403): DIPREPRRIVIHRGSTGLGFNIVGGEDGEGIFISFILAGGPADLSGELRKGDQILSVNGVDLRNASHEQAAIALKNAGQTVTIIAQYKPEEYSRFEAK
Assay: holdup assay
Set-up: key: below the threshold = too weak to quantify, mostly under pKd 3.1 to 4
Conditions: plain residues with an end cap or a label only (N-terminal biotin on a linker: ado-ado)

Row | Binder | pKd
9 | B1 | below the threshold

Target: PICK1, Q9NRD5
Sequence (Q9NRD5 17-115): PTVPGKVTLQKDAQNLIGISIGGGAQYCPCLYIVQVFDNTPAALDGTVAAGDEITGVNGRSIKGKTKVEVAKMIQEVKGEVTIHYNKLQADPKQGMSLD
Assay: holdup assay
Set-up: key: below the threshold = too weak to quantify, mostly under pKd 3.1 to 4
Conditions: plain residues with an end cap or a label only (N-terminal biotin on a linker: ado-ado)

Row | Binder | pKd
10 | B1 | below the threshold

Target: T4, PDZRN3_1, Q9UPQ7
Assay: holdup assay
Set-up: key: below the threshold = too weak to quantify, mostly under pKd 3.1 to 4
Conditions: plain residues with an end cap or a label only (N-terminal biotin on a linker: ado-ado)

Row | Binder | pKd
11 | B1 | below the threshold

Target: T5, GRIP1_5, Q9Y3R0
Assay: holdup assay
Set-up: key: below the threshold = too weak to quantify, mostly under pKd 3.1 to 4
Conditions: plain residues with an end cap or a label only (N-terminal biotin on a linker: ado-ado)

Row | Binder | pKd
12 | B1 | below the threshold

Target: SNX27, Q96L92
Assay: holdup assay
Set-up: key: below the threshold = too weak to quantify, mostly under pKd 3.1 to 4
Conditions: plain residues with an end cap or a label only (N-terminal biotin on a linker: ado-ado)

Row | Binder | pKd
13 | B1 | below the threshold

Target: GRIP2_4, Q9C0E4
Sequence (Q9C0E4 446-548): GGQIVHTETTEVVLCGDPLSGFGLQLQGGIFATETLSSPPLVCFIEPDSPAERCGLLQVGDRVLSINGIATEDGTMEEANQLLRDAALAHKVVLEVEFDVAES
Assay: holdup assay
Set-up: key: below the threshold = too weak to quantify, mostly under pKd 3.1 to 4
Conditions: plain residues with an end cap or a label only (N-terminal biotin on a linker: ado-ado)

Row | Binder | pKd
14 | B1 | below the threshold

Target: MAGI1_1, Q96QZ7
Sequence (Q96QZ7 1-106): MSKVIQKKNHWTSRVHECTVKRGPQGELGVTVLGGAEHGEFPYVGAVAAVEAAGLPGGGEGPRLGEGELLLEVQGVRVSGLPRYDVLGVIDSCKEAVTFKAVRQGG
Assay: holdup assay
Set-up: key: below the threshold = too weak to quantify, mostly under pKd 3.1 to 4
Conditions: plain residues with an end cap or a label only (N-terminal biotin on a linker: ado-ado)

Row | Binder | pKd
15 | B1 | below the threshold

Target: DLG5_1, Q8TDM6
Sequence (Q8TDM6 617-713): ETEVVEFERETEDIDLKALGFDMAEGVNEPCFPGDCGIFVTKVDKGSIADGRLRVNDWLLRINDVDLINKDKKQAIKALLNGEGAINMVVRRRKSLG
Assay: holdup assay
Set-up: key: below the threshold = too weak to quantify, mostly under pKd 3.1 to 4
Conditions: plain residues with an end cap or a label only (N-terminal biotin on a linker: ado-ado)

Row | Binder | pKd
16 | B1 | below the threshold

Target: GRIP2_7, Q9C0E4
Sequence (Q9C0E4 934-1023): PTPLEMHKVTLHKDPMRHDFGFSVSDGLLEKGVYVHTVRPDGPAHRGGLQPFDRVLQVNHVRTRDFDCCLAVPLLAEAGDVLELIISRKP
Assay: holdup assay
Set-up: key: below the threshold = too weak to quantify, mostly under pKd 3.1 to 4
Conditions: plain residues with an end cap or a label only (N-terminal biotin on a linker: ado-ado)

Row | Binder | pKd
17 | B1 | below the threshold

Target: LNX1_2, Q8TBB1
Sequence (Q8TBB1 371-470): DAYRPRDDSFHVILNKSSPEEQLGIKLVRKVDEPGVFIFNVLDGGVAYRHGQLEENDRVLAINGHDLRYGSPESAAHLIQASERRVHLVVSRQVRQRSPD
Assay: holdup assay
Set-up: key: below the threshold = too weak to quantify, mostly under pKd 3.1 to 4
Conditions: plain residues with an end cap or a label only (N-terminal biotin on a linker: ado-ado)

Row | Binder | pKd
18 | B1 | below the threshold

Target: GORASP1, Q9BQQ3
Sequence (Q9BQQ3 1-208): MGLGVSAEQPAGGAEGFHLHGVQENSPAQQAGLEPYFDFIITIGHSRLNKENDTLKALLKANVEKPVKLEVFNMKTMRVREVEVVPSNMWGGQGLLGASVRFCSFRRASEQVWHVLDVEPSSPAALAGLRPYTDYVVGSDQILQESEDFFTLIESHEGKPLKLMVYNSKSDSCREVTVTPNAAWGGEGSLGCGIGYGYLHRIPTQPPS
Assay: holdup assay
Set-up: key: below the threshold = too weak to quantify, mostly under pKd 3.1 to 4
Conditions: plain residues with an end cap or a label only (N-terminal biotin on a linker: ado-ado)

Row | Binder | pKd
19 | B1 | below the threshold

Target: PDZRN4_1, Q6ZMN7
Sequence (Q6ZMN7 213-318): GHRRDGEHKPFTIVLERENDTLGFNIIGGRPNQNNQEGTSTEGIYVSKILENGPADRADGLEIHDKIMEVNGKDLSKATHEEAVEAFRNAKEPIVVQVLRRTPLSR
Assay: holdup assay
Set-up: key: below the threshold = too weak to quantify, mostly under pKd 3.1 to 4
Conditions: plain residues with an end cap or a label only (N-terminal biotin on a linker: ado-ado)

Row | Binder | pKd
20 | B1 | below the threshold

Target: SCRIB_3, Q14160
Sequence (Q14160 999-1103): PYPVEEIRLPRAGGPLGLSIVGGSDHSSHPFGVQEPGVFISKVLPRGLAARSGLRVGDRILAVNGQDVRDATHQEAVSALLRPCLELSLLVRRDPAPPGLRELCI
Assay: holdup assay
Set-up: key: below the threshold = too weak to quantify, mostly under pKd 3.1 to 4
Conditions: plain residues with an end cap or a label only (N-terminal biotin on a linker: ado-ado)

Row | Binder | pKd
21 | B1 | below the threshold

Target: LNX1_3, Q8TBB1
Sequence (Q8TBB1 500-596): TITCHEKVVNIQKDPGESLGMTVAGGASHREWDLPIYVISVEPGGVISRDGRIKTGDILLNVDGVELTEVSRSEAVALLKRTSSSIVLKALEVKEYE
Assay: holdup assay
Set-up: key: below the threshold = too weak to quantify, mostly under pKd 3.1 to 4
Conditions: plain residues with an end cap or a label only (N-terminal biotin on a linker: ado-ado)

Row | Binder | pKd
22 | B1 | below the threshold

Target: T6, DFNB31_1, Q9P202
Assay: holdup assay
Set-up: key: below the threshold = too weak to quantify, mostly under pKd 3.1 to 4
Conditions: plain residues with an end cap or a label only (N-terminal biotin on a linker: ado-ado)

Row | Binder | pKd
23 | B1 | below the threshold

Target: GIPC2, Q8TF65
Sequence (Q8TF65 112-203): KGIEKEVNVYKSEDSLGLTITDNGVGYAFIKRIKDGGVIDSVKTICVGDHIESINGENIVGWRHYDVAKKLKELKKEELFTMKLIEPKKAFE
Assay: holdup assay
Set-up: key: below the threshold = too weak to quantify, mostly under pKd 3.1 to 4
Conditions: plain residues with an end cap or a label only (N-terminal biotin on a linker: ado-ado)

Row | Binder | pKd
24 | B1 | below the threshold

Target: T7, RADIL, Q96JH8
Assay: holdup assay
Set-up: key: below the threshold = too weak to quantify, mostly under pKd 3.1 to 4
Conditions: plain residues with an end cap or a label only (N-terminal biotin on a linker: ado-ado)

Row | Binder | pKd
25 | B1 | below the threshold

Target: MAGI2_5, Q86UL8
Sequence (Q86UL8 915-1017): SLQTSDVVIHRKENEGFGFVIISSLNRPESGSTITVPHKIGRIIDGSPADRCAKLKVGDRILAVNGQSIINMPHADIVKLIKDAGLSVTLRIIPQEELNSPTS
Assay: holdup assay
Set-up: key: below the threshold = too weak to quantify, mostly under pKd 3.1 to 4
Conditions: plain residues with an end cap or a label only (N-terminal biotin on a linker: ado-ado)

Row | Binder | pKd
26 | B1 | below the threshold

Target: T8, APBA3_1, O96018
Assay: holdup assay
Set-up: key: below the threshold = too weak to quantify, mostly under pKd 3.1 to 4
Conditions: plain residues with an end cap or a label only (N-terminal biotin on a linker: ado-ado)

Row | Binder | pKd
27 | B1 | below the threshold

Target: Inadl_1, Q8NI35
Sequence (Q8NI35 113-229): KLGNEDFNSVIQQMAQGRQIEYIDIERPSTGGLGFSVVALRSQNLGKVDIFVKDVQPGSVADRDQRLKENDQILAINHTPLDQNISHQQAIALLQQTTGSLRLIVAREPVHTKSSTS
Assay: holdup assay
Set-up: key: below the threshold = too weak to quantify, mostly under pKd 3.1 to 4
Conditions: plain residues with an end cap or a label only (N-terminal biotin on a linker: ado-ado)

Row | Binder | pKd
28 | B1 | below the threshold
